# Measurements as given in paper PMC5358978, “Nuclear export receptor CRM1 recognizes diverse conformations in nuclear export signals” (eLife, 2017).
# What was measured:
# ^HsCRM1 = ^HsCRM1 (Homo sapiens, UniProt O14980); test: Differential bleaching, competition titration of MBP-NES to FITC-PKI^NES and CRM1 with excess RanGTP; format: binding
# HeLa cells = test: In vivo NES activity assay, EYFP2-SV40^NLS-NES reporter, spinning disk confocal microscope; format: cell-based; details: EYFP2-SV40^NLS-FMRP-1b^NES expressed in HeLa cells; 60X
# Description: Figure 2. Structures of NESs with non-helical sequence patterns. (A–E) FMRP^NES (light orange), SMAD4^NES (salmon), HDAC^NES (slate), Pax^NES (pale cyan) and FMRP-1b^NES (deep teal) bound to the ^ScCRM1 groove. […] Average displacements of each Φ Cα in the eight NESs (including mDia2^NES, CDC7^NES, X11L2^NES in Figure 1) from the equivalent Φ Cα of PKI^NES(Ф0L) are 1.3 ± 0.6 (Φ4), 0.8 ± 0.5 (Φ3), 0.7 ± 0.4 (Φ2), 0.9 ± 0.3 (Φ1) and 1.8 ± 0.9 (Φ0) Å. DOI: http://dx.doi.org/10.7554/eLife.23961.012 Figure 2—figure supplement 1. Electron densities of the NES peptides. […] DOI: http://dx.doi.org/10.7554/eLife.23961.013 [drawing 7] Figure 2—figure supplement 2. Engineering class 1b NESs. (A) Sequences of class 1b NESs generated from PKI^NES and FMRP^NES. […] The reactions were extensively washed and visualized with SDS/PAGE and Coomassie staining. (B) Leptomycin B (LMB) sensitive nuclear export activity of FMRP-1b^NES was verified by expressing EYFP2-SV40^NLS-FMRP-1b^NES in HeLa cells and imaged with spinning disk confocal microscope (60X). DOI: http://dx.doi.org/10.7554/eLife.23961.014 [drawing 8]
# wild type ^HsCRM1 = test: Pull-down binding assay with immobilized GST-NESs; design: species or system human; details: ~5 µg immobilized GST-NESs, 7.5 µM ^ScRanGTP, 2.5 µM CRM1, 200 µL
# CRM1 = details: ref Xu et al., 2012c, 2015; cited from earlier work
# Description: What then are CRM1 groove features that selectively recognize the key NES features? Arrangement of hydrophobic pockets in the groove likely selects NESs with suitably placed Φ residues. Groove shape, tapering and most constricted at ^ScCRM1 Lys579 (^HsCRM1 Lys568), likely selects for NES helices that transition to strands or NES helices that end (Figure 3C). Is groove-constricting ^HsCRM1 Lys568 perhaps key for differentiating active from false positive NES sequences? We tested mutants ^HsCRM1(K568A) and ^HsCRM1(K568M) for interactions with three previously identified false positive NESs that ...
# [1] = MBP-NES competes with FITC-PKI^NES for CRM1, excess RanGTP, triplicate, brackets = 68.3% confidence interval
Substance,Kd (^HsCRM1; [1]) [µM],further results
"GGS-YLKEVDQLRALERLQID [MBP-FMRP-1b^NES, Engineered class 1b NES, an alanine added to FMRP^NES; tested as MBP fusion and as EYFP2-SV40^NLS reporter]",3,Leptomycin B (LMB) sensitive nuclear export activity (HeLa cells): verified
MBP-CDC7^NES: MBP fusion of the NES of cell division cycle 7-related protein kinase,20,–
MBP-SMAD4^NES: MBP fusion of the NES of Mothers against decapentaplegic homolog 4 protein,4.6,–
MBP-FMRP^NES: MBP fusion of the class 2 NES of fragile X mental retardation protein,2,–
MBP-HDAC5^NES: MBP fusion of the NES of Histone deacetylase 5,1.6,–
YLKEVDQLRALER [MBP-FMRP-1b^NES mutant],–,"CRM1 binding in words, differential bleaching competition (^HsCRM1; excess RanGTP): does not bind CRM1; Kd (^HsCRM1; triplicate competition titrations, brackets = 68.3% confidence level, U = undetermined, NB = not binding): 1700 µM"
MBP-X11L2^NES: MBP fusion of the NES from beta-amyloid binding protein X11L2,1.5,–
MBP-Pax^NES: MBP fusion of the NES of Paxillin,0.67,–
"173KTLSEVEESISTLISQPN^190 [COMMD1^pep, False positive NES peptide from COMM domain-containing protein 1, class 3 match; GST fusion in pull-down]",–,Pull-down binding to wild type ^HsCRM1 (wild type ^HsCRM1): does not bind; CRM1 binding of false positive NESs that match NES consensus (CRM1): do not bind CRM1
